Reference: patent US20250197519A1 (Xencor, published 2025)

T1: CD20 on CD20+ Ramos B cells (human, UniProt P11836 1-297)
T1 construct: whole, on cells; also called human CD20
T1 sequence (looked up): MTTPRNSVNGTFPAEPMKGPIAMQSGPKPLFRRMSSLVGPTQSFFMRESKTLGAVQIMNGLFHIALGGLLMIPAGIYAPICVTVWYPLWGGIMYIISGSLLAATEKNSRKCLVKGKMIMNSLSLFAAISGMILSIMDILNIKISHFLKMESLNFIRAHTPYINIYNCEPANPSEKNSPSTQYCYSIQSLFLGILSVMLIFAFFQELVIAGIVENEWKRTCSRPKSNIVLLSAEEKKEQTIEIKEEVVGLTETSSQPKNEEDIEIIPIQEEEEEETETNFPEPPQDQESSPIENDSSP

B1: bivalent IgG1 mAb having humanized/affinity-optimized [CD20]_H1_L1 Fv (antibody, V domains shown)
VH: QVQLVQSGAEVKKPGASVKVSCKASGYTFTSYNMHWVRQAPGQRLEWMGAIYPGNGATSYSQKFQGRVTITADTSASTAYMELSSLRSEDTAVYYCARSYYMGGDWYFDVWGAGTLVTVSS
VL: QIVLTQSPSSLSASVGDRVTITCRASWSVSYIHWFQQKPGKSPKPLIYATSNLASGVPVRFSGSGSGTDYTLTISSLQPEDFATYYCQQWTHNPPTFGGGTKVEIK
notes: also called improved CD20 mAb

Assays:
[1] = molecular target: CD20 on CD20+ Ramos B cells (human) (UniProt P11836); assay: flow cytometry on Ramos B cells, PE-conjugated goat anti-human IgG Fc secondary
[2] = molecular target: T1, CD20 on CD20+ Ramos B cells; assay: as above
Protocol: Next, binding of the improved CD20 mAb to CD20+ Ramos B cells was investigated. 1.5×10⁵ Ramos B cells were incubated with indicated concentrations of bivalent IgG1 mAb having either [CD20]H0L0 or optimized [CD20]_H1_L1 on ice for 1 hour. PE-conjugated goat anti-human IgG Fc was used as a secondary antibody to detect binding of the CD20 mAbs to the target cells.

Row | Molecule | EC50 [1] [mg/L] | EC50 [2] [mg/L]
1 | bivalent IgG1 mAb having the rituximab Fv [CD20]_H0L0 (antibody) | 0.264 | –
2 | B1 | – | 0.175
